Assay results: US20200317768A1 (published 2020)

Experiments:
[1] = target: T1, cynomolgus monkey FcγRIIb extracellular domain, C-terminal His-tag (cynomolgus monkey); assay: SPR (Biacore), antibody captured, FcgR analyte
T1 construct: also called cyno FcγRIIb; cynoFcγRIIb
T1 chain: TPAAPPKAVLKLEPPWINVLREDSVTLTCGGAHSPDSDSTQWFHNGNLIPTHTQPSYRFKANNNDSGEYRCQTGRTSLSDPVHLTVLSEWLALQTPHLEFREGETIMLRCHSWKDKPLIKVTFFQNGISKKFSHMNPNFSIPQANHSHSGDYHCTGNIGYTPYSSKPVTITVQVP

[2] = target: T2, cynomolgus monkey FcγRIIa3 extracellular domain, C-terminal His-tag (cynomolgus monkey); assay: SPR (Biacore), antibody captured, FcgR analyte
T2 construct: also called cyno FcγRIIa3; cynoFcgRIIa3
T2 chain: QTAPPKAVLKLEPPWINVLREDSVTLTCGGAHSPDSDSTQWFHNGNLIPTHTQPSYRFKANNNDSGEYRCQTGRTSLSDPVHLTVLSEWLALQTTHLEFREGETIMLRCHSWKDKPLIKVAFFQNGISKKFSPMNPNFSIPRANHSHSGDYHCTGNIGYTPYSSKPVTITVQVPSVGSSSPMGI

[3] = target: T3, cynomolgus monkey FcγRIIIaS extracellular domain, C-terminal His-tag (cynomolgus monkey, UniProt Q8SPW2 21-206 at identity 1.00)); assay: SPR (Biacore), antibody captured, FcgR analyte
T3 construct: also called cyno FcγRIIIaS; cynoFcγRIIIaS
T3 chain: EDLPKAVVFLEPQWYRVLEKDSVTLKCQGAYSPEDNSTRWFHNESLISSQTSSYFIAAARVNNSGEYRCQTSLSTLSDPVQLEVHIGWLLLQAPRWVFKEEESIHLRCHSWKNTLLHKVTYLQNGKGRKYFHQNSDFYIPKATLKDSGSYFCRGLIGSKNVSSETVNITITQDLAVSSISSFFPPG

[4] = target: T4, human FcγRIIb extracellular domain, C-terminal His-tag (human, UniProt P31994 43-217); assay: SPR (Biacore), antibody captured, FcgR analyte
T4 construct: also called human FcgRIIb; FcgRIIb
T4 sequence: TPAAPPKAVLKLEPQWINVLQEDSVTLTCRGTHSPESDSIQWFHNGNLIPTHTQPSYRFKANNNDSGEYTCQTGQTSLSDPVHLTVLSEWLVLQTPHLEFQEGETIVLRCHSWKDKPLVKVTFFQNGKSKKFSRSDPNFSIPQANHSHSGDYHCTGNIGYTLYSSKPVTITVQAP

[5] = target: T5, human FcγRIIaH extracellular domain, C-terminal His-tag (human, UniProt P12318 34-217); assay: SPR (Biacore), antibody captured, FcgR analyte
T5 construct: also called human FcγRIIa (type H); FcgRIIaH
T5 sequence: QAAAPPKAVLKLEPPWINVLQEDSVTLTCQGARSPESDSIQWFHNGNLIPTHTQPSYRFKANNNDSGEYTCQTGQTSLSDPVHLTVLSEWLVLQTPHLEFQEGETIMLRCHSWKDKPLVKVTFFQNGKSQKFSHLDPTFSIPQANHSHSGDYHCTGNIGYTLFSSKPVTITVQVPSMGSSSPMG

[6] = target: T6, human FcγRIIIaV extracellular domain, C-terminal His-tag (human, UniProt P08637 17-208); assay: SPR (Biacore), antibody captured, FcgR analyte
T6 construct: also called human FcgRIIIaV; FcgRIIIaV
T6 sequence (P08637 17-208 F176V): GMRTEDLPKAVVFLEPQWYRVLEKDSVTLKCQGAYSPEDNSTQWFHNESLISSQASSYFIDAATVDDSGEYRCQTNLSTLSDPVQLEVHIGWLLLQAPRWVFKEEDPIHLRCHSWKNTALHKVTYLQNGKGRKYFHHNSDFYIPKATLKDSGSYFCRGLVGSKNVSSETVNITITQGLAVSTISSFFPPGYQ

[7] = target: T7, cynomolgus monkey FcγRIIa2 extracellular domain, C-terminal His-tag (cynomolgus monkey); assay: SPR (Biacore), antibody captured, FcgR analyte
T7 construct: also called cyno FcγRIIa2; cynoFcgRIIa2
T7 chain: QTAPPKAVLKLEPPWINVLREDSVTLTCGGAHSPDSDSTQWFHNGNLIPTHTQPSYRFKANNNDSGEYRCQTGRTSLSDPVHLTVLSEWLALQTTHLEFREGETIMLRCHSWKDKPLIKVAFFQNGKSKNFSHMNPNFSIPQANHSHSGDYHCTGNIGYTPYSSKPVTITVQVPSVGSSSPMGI

[8] = target: T8, human FcγRIIaR extracellular domain, C-terminal His-tag (human, UniProt P12318 34-217); assay: SPR (Biacore), antibody captured, FcgR analyte
T8 construct: also called human FcγRIIa (type R); FcgRIIaR
T8 chain: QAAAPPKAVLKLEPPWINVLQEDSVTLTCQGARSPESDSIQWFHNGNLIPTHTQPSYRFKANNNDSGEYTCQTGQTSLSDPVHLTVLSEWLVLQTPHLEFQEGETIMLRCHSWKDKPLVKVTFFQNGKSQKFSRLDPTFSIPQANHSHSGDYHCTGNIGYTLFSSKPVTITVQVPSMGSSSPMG

[9] = target: T6, human FcγRIIIaV extracellular domain, …; assay: SPR (Biacore); KD of SG1 / KD of variant;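 note: relative to parent M103205H795-SG1 carrying the SG1 human heavy chain constant region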
[10] = target: T7, cynomolgus monkey FcγRIIa2 …; assay: SPR (Biacore); KD of SG1 / KD of variant;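 note: relative to parent M103205H795-SG1 carrying the SG1 human heavy chain constant region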

Kd [1]: 170 nM
Kd [2]: 14000 nM
Kd [3]: 2100 nM
Kd [4]: 890 nM
Kd [5]: 360 nM
Kd [6]: 10000 nM
Kd [7]: 560 nM
Kd [8]: 710 nM
KD fold (SG1 = 1) [9]: 0.08 fold
KD fold (SG1 = 1) [10]: 9.1 fold
B1: M103205H795-MY197/M103202L889-SK1 (antibody, human IgG1, kappa)
heavy: QVTLKESGPVLVKPTETLTLTCTVSGIDLSHDDISWVRQAPGKGLEWVGIISYAGSTYYASWAKGRLTISKDTSKNQVVLTMTNMDPVDTATYYCARGVPAYSHGGDLWGQGTLVTVSSASTKGPSVFPLAPSSKSTSGGTAALGCLVKDYFPEPVTVSWNSGALTSGVHTFPAVLQSSGLYSLSSVVTVPSSSLGTQTYICNVNHKPSNTKVDKKVEPKSCDKTHTCPPCPAPELLNGPSVFLFPPKPKDTLMISRTPEVTCVVVDVSDEDPEVKFNWYVDGVEVHNAKTKPREEQYNSTYRVVSVLTVLHQDWLNGKEYKCKVSNKALPKPIEKTISKAKGQPREPQVYTLPPSREEMTKNQVSLTCLVKGFYPSDIAVEWESNGQPENNYKTTPMVLDSDGSFFLYSKLTVDKSRWQQGNVFSCSVMHEALHNHYTQKSLSLSP
light: DIVMTQSPATLSLSPGERATLSCTSSQSVYHANWLSWFQQKPGQPPKLLIYWASTLAYGVPSRFSGSGSGTDFTLTISSLQPEDAATYYCAGGYGGGRYAFGQGTKVEIKRTVAAPSVFIFPPSDEQLKSGTASVVCLLNNFYPREAKVQWKVDNALQSGNSQESVTEQDSKDSTYSLSSTLTLSKADYEKHKVYACEVTHQGLSSPVTKSFNRGEC
notes: Substitutions introduced into M103205H795-SG1; expressed with M103202L889-SK1 as light chain
